US20170342155A1 (Amgen, published 2017)

T1: wild-type murine CCR7 (pcDNA3.1 Neo-mouseCCR7, 20060298628) (mouse, UniProt P47774 25-378)
T1 construct: Full open reading frame as printed; Expressed on transfected 293T cells; also called mCCR7; wild-type murine CCR7 receptor
T1 sequence: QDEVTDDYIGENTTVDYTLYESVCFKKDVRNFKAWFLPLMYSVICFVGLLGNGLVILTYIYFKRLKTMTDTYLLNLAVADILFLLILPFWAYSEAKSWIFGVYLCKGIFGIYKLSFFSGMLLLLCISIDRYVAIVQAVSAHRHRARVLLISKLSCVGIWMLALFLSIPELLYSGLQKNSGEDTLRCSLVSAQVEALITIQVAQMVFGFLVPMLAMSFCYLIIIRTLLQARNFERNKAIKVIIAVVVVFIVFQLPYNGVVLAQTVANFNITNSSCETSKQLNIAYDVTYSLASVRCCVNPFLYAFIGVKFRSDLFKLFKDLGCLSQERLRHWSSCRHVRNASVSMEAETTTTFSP

T2: human CCR7 variant H127Y (20100135009) (human, UniProt P32248 25-378)
T2 sequence: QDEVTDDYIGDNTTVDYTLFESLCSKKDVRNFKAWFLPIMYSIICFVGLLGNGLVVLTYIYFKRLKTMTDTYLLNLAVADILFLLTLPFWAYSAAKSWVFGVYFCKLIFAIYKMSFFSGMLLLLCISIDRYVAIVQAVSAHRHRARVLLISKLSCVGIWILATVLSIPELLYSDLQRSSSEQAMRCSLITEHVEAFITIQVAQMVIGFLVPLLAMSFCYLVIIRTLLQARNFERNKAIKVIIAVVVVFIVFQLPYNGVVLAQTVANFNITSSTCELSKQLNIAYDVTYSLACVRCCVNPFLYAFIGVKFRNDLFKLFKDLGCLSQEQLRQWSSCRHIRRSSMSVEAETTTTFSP

T3: human CCR7 variant S202N (20110009483) (human, UniProt P32248 25-378)
T3 sequence: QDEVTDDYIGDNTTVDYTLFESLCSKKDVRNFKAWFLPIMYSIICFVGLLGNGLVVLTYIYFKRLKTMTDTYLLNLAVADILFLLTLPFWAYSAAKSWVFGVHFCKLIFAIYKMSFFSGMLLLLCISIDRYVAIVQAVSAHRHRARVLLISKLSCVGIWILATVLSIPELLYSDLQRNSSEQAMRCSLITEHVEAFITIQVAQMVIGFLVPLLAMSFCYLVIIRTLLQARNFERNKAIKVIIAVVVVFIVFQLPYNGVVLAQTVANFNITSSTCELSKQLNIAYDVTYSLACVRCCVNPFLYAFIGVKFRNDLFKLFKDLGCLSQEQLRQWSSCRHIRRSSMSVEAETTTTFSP

T4: human CCR7 variant A207T (20100171270) (human, UniProt P32248 25-378)
T4 sequence: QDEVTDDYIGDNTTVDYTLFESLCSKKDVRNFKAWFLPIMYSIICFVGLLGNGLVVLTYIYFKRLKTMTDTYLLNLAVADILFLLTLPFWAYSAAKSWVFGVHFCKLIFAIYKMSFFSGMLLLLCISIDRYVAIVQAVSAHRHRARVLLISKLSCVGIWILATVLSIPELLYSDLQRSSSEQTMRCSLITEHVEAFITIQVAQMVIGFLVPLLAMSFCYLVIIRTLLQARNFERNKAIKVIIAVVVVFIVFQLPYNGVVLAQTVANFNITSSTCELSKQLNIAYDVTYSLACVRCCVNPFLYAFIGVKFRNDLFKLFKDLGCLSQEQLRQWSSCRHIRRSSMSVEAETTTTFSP

T5: human CCR7 variant T297S (20110018203) (human, UniProt P32248 25-378)
T5 sequence: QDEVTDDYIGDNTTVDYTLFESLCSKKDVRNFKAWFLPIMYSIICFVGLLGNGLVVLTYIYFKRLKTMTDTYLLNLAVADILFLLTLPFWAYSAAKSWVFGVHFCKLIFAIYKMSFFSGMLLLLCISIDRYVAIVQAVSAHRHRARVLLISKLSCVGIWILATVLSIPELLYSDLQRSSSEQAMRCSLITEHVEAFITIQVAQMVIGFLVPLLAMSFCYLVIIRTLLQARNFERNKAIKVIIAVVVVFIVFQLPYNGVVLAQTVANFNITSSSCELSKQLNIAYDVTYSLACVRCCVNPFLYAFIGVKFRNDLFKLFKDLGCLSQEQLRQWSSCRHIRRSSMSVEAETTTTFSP

T6: murine CCR7 Y44F/V47L/K201R/N202S/G204S/T207A/L208M construct 20110105423 (mouse, UniProt P47774 25-378)
T6 construct: Murine CCR7 with seven human residues; also called YVKNGTL; construct YVKNGTL
T6 chain: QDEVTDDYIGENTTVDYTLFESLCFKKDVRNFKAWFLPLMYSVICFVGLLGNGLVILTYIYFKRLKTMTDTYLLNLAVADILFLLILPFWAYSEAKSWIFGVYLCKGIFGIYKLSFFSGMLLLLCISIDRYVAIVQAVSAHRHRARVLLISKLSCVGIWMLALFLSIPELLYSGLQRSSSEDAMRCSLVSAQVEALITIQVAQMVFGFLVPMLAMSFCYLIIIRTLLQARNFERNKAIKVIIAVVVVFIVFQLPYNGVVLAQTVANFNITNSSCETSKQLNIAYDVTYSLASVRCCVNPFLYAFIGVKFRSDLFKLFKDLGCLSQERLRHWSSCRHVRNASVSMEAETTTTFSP


Tests used:
[1] = target: T1, wild-type murine CCR7 (pcDNA3.1 …); assay: flow cytometry on transfected 293T cells
Procedure: 293T cells were transfected with each of the 22 constructs using Fugene HD Transfection Reagent (Cat #: 04709705001) (Roche Applied Sciences, Indianapolis, Ind.) according to manufacturer's protocol. DNA to Fugene HD ratio used was 1:3. […] After 48 hours, transfected cells were harvested and washed with PBS+5% FBS two times. Cells were counted using the Nexcelom Cell Counter (Nexcelom Bioscience, Lawrence, Mass.), and 250,000 cells per well were plated in a 96 well round bottom plate. Cells transfected with each construct were stained in duplicate as follows: unstained control, 6B4.1 primary Ab followed by Goat anti-human-PE secondary Ab, 6B5.1 primary Ab followed by Goat anti-human-PE secondary Ab, mAb197 primary Ab followed by Goat anti-mouse-PE secondary Ab, and the controls of secondary Ab Goat anti-mouse-PE only and Goat anti-human-PE only. The cells were visualized by flow cytometry and geo means were generated and analyzed.

[2] = target: T2, human CCR7 variant H127Y (20100135009); assay: flow cytometry on transfected 293T cells, PE secondary antibody, geo mean
[3] = target: T3, human CCR7 variant S202N (20110009483); assay: as above
[4] = target: T4, human CCR7 variant A207T (20100171270); assay: as above
[5] = target: T5, human CCR7 variant T297S (20110018203); assay: as above
[6] = target: T6, murine CCR7 …; assay: as above

Row | binding result [1] | binding result [2] | binding result [3] | binding result [4] | binding result [5] | binding result [6] | Binder
1 | no binding | binds | binds | binds | binds | binds | antibody 6B4.1 (antibody, V domains shown, Human antibody from XenoMouse hybridoma; Light = 2 and heavy = 42 is inferred from the order of the listing (light chains first)) VH: QVQLVESGGGVVQPGRSLRLSCAASGFTFSSYGMHWVRQAPGKGLEWVAVIWYDGSKKYYADSVKGRFTISRDNSKNTLYLQMNRLRAEDTAVYYCARDGGIAVFLQDNWFDPWGQGTLVTVSS VL: SYELTQPPSVSVSPGQRARITCSGDKLGDKYASWYQQKPGQSPLLVIYQDSKRPSGIPERFSGSNSGNTATLTISGTQAMDEADYYCQAWGSSTVIFGGGTKLTVLG
2 | no binding | binds | binds | binds | binds | binds | antibody 6B5.1 (antibody, human IgG2, lambda, V domains shown, Human antibody from XenoMouse hybridoma; Light = 18 and heavy = 50 is inferred from the order of the listing) VH: QVQLVESGGGVVQPGRSLRLSCAASGFTFRSYGMHWVRQAPGKGLEWVAVIWYDGSKKYYADSVKGRFTISRDNSKNTLYLQMNRLRAEDTAVYYCARDGGIAVFLEDNWFDPWGQGTLVTVSS VL: SYELTQPPSVSVSPGQRASITCSGDKLGDKYASWYQQKPGQSPLLVIYQDGKRPSGIPERFSGSNSGNTATLTISGTQAMDEADYYCQAWGSSTVIFGGGTKLTVLG
